Assay results reported in the supplement of paper PMC6757056.
± gives the standard deviation of the averaged measurements.

B1: library; a variant is named by its letters at N, in order (parent)
chain: GCUGUCACCGGUGUAUUACCCUAGUGGUCGACCGGUCUGAUGAGUCUNNNNNNAGACGAAACAGC

Assays:
hypoxanthine [1] = variants of: B1; assay: FACS-Seq fitted mean relative fluorescence mCherry/BFP without ligand (log10 relative fluorescence); ligand: hypoxanthine (xanthine aptamer); higher = higher reporter protein expression; conditions: HEK293T, ligand present: no
Summary of the method: (§1)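 Lentivirally transduced HEK293T libraries carried an mCherry reporter with the ribozyme switch and an EF1α-BFP marker. Transduced cells were enriched, then incubated with or without ligand for 48 h and sorted into 6 bins by mCherry/BFP. Genomic DNA from each bin was PCR-amplified, barcoded and sequenced on MiSeq. Fluorescence was the fitted normal mean of log10(mCherry/BFP) bin counts, scaled to five spiked-in control ribozymes.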

hypoxanthine [2] = variants of: B1; assay: normalized RNA/DNA level with ligand (relative to sTRSVctl = 100) (log10 (% of sTRSVctl)); ligand: hypoxanthine (xanthine aptamer); higher = less ribozyme self-cleavage, higher mRNA level; conditions: ligand concentration (+) RNA-Seq: 5 mM, HEK293T, reporter: mCherry (pCS4076), ligand present: yes
Summary of the method: (§2)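 HEK293T cells were transfected with library plasmids carrying ribozyme switches linked to an mCherry reporter, or an eGFP reporter in some ligand experiments, at 4 µg per well of a 6-well plate, with any ligand added 1 h beforehand. After 72 h, total RNA was extracted with EDTA, reverse-transcribed, amplified, barcoded and sequenced. RNA level was defined as RNA reads over DNA reads, normalized to a spiked-in non-cleaving sequence or to the top-ranked sequences. That value was multiplied by 100 and converted to log10, the top set was 25 sequences, and only sequences with ≥100 DNA reads were retained.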

hypoxanthine [3] = variants of: B1; assay: normalized RNA/DNA level without ligand (relative to sTRSVctl = 100) (log10 (% of sTRSVctl)); ligand: hypoxanthine (xanthine aptamer); higher = less ribozyme self-cleavage, higher mRNA level; conditions: HEK293T, reporter: mCherry (pCS4076), ligand present: no
Summary of the method: as §2

hypoxanthine [4] = variants of: B1; assay: FACS-Seq fitted mean relative fluorescence mCherry/BFP with ligand (log10 relative fluorescence); ligand: hypoxanthine (xanthine aptamer); ligand concentration (+) FACS-Seq: 5 mM; higher = higher reporter protein expression; conditions: HEK293T, ligand present: yes
Summary of the method: as §1

Variant	FACS-Seq fitted mean (log10) (hypoxanthine [1])	normalized RNA/DNA level with ligand (log10) (hypoxanthine [2])	normalized RNA/DNA level without ligand (log10) (hypoxanthine [3])	FACS-Seq fitted mean (log10) (hypoxanthine [4])
UUAUGG	0.281 ± 0.094	1.89 ± 0.032	1.666 ± 0.015	0.317 ± 0.05
UUAUGA	-0.0342 ± 0.015	1.91 ± 0.04	1.64 ± 0.039	-0.0882 ± 0.046
AUAAUU	0.751 ± 0.0089	1.92 ± 0.046	1.83 ± 0.061	0.619 ± 0.013
AUAAUA	-0.24 ± 0.021	1.886 ± 0.012	1.82 ± 0.0094	-0.134 ± 0.044
AUAAUG	0.211 ± 0.039	1.838 ± 0.013	1.51 ± 0.064	0.551 ± 0.036
CGUGGG	0.0862 ± 0.026	1.85 ± 0.022	1.3 ± 0.078	0.505 ± 0.047
CUACAA	0.07 ± 0.013	1.9 ± 0.013	1.79 ± 0.044	-0.0643 ± 0.025
AUACCG	0.00532 ± 0.0097	1.84 ± 0.095	1.47 ± 0.035	0.282 ± 0.082
AUACCC	0.513 ± 0.014	1.94 ± 0.043	1.89 ± 0.027	0.292 ± 0.028
AGUUGC	0.226 ± 0.043	1.91 ± 0.048	1.72 ± 0.022	0.382 ± 0.02
AGUUGG	-0.154 ± 0.12	1.8 ± 0.037	1.338 ± 0.0021	0.403 ± 0.075
UUACAU	0.352 ± 0.018	1.93 ± 0.051	1.87 ± 0.026	0.453 ± 0.11
UUACAC	0.362 ± 0.025	1.92 ± 0.079	1.81 ± 0.025	0.444 ± 0.051
AUAGGG	0.023 ± 0.0025	1.807 ± 0.011	1.38 ± 0.0023	0.46 ± 0.053
AUAGGA	0.382 ± 0.011	1.9 ± 0.042	1.658 ± 0.015	0.529 ± 0.017
AUAGCG	-0.227 ± 0.035	1.87 ± 0.045	1.36 ± 0.057	-0.0558 ± 0.023
AUAGCA	0.241 ± 0.047	1.88 ± 0.033	1.78 ± 0.023	0.455 ± 0.093
UUAUUA	0.289 ± 0.0048	1.96 ± 0.086	1.91 ± 0.062	0.398 ± 0.036

Variant	FACS-Seq fitted mean (log10) (hypoxanthine [1])	normalized RNA/DNA level with ligand (log10) (hypoxanthine [2])	normalized RNA/DNA level without ligand (log10) (hypoxanthine [3])	FACS-Seq fitted mean (log10) (hypoxanthine [4])
UGUUGU	0.254 ± 0.025	1.913 ± 0.0038	1.738 ± 0.011	0.57 ± 0.019
CUAGCA	0.139 ± 0.058	1.93 ± 0.038	1.83 ± 0.04	0.177 ± 0.018
GUAAAC	0.572 ± 0.053	1.946 ± 0.0036	1.74 ± 0.028	0.739 ± 0.055
GUAAAU	0.503 ± 0.07	1.88 ± 0.053	1.778 ± 0.011	0.467 ± 0.11
GUAAAA	0.614 ± 0.066	1.92 ± 0.06	1.815 ± 0.0075	0.661 ± 0.033
GUAAAG	-0.0437 ± 0.028	1.82 ± 0.023	1.49 ± 0.045	-0.15 ± 0.059
GUAACG	0.351 ± 0.015	1.93 ± 0.048	1.59 ± 0.022	0.537 ± 0.02
GGUUAC	0.247 ± 0.029	1.96 ± 0.064	1.8 ± 0.066	0.276 ± 0.0034
GGUUAG	0.17 ± 0.041	1.726 ± 0.017	1.383 ± 0.0095	0.458 ± 0.03
AGUUUA	0.474 ± 0.011	1.93 ± 0.025	1.79 ± 0.027	0.651 ± 0.098
GUACGG	-0.0891 ± 0.011	1.893 ± 0.016	1.4 ± 0.048	0.337 ± 0.062
GUACGU	0.418 ± 0.03	1.8918 ± 0.0012	1.78 ± 0.067	0.626 ± 0.09
CUAGUC	0.639 ± 0.036	1.99 ± 0.074	1.91 ± 0.046	0.658 ± 0.03
CUAGUG	-0.00638 ± 0.00052	1.95 ± 0.1	1.85 ± 0.028	0.202 ± 0.017
GUAGUG	0.125 ± 0.029	1.94 ± 0.037	1.428 ± 0.0021	0.532 ± 0.051
GUAGUA	0.68 ± 0.083	1.899 ± 0.01	1.749 ± 0.014	0.725 ± 0.029
AUAAGG	0.0649 ± 0.081	1.8 ± 0.019	1.4 ± 0.038	0.345 ± 0.062
